This note sets out measurements from publication PMC10786891, “Massively parallel profiling of RNA-targeting CRISPR-Cas13d”.

T1: EsCas13d, nuclease-dead (Eubacterium siraeum, UniProt B0MS50, R295A;H300A;R849A;H854A)
T1 sequence: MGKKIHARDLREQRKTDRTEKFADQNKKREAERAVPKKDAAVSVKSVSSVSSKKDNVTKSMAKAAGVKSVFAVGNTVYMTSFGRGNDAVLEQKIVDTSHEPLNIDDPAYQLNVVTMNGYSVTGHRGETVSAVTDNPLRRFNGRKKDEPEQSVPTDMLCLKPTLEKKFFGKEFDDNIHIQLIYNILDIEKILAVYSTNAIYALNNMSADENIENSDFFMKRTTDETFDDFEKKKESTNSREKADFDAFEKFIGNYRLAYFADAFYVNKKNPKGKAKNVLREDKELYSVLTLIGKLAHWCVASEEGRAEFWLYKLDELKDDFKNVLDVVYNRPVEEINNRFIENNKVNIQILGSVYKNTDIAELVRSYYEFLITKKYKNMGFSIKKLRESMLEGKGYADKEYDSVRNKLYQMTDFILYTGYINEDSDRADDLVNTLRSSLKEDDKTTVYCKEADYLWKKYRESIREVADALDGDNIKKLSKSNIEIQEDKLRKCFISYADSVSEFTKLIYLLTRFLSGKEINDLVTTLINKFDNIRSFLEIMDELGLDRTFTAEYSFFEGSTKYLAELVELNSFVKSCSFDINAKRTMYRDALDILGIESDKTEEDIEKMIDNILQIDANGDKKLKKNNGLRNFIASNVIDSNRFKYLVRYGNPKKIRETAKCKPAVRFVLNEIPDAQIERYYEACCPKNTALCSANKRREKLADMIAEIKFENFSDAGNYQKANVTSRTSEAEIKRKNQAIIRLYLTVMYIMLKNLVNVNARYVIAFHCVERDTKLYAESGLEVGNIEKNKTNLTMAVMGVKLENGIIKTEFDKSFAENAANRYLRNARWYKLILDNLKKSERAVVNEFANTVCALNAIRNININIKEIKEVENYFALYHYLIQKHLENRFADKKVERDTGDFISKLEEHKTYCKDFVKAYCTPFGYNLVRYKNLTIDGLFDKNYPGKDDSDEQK

B1: target 1 insU 3' of 15,insU 3' of 2 (mixed)
RNA 1: CACCCGUGCAAAAAUGCAGGGGUCUAAAACUGAGCGGAUAACCUCUCUAUGG
RNA 2: GGGAAUGGAUCCACAUCUACGAAUUCGUACCAUAGAGUAGGUUAUCCGCUCUACCGAGAUCGGAAGAGCACACGU
B2: target 1 insU 3' of 9,insG 3' of 1 (mixed)
RNA 1: CACCCGUGCAAAAAUGCAGGGGUCUAAAACUGAGCGGAUAACCUCUCUAUGG
RNA 2: GGGAAUGGAUCCACAUCUACGAAUUCGUACCAUAGAGAGGUUAUUCCGCUCAGCCGAGAUCGGAAGAGCACACGU
B3: target 1 G5A,G17U (mixed)
RNA 1: CACCCGUGCAAAAAUGCAGGGGUCUAAAACUGAGCGGAUAACCUCUCUAUGG
RNA 2: GGGAAUGGAUCCACAUCUACGAAUUCGUACCAUAUAGAGGUUAUCCACUCACCGAGAUCGGAAGAGCACACGU
B4: target 1 insC 3' of 15,insA 3' of 5 (mixed)
RNA 1: CACCCGUGCAAAAAUGCAGGGGUCUAAAACUGAGCGGAUAACCUCUCUAUGG
RNA 2: GGGAAUGGAUCCACAUCUACGAAUUCGUACCAUAGAGCAGGUUAUCCGACUCACCGAGAUCGGAAGAGCACACGU
B5: target 1 insA 3' of 15,insU 3' of 12 (mixed)
RNA 1: CACCCGUGCAAAAAUGCAGGGGUCUAAAACUGAGCGGAUAACCUCUCUAUGG
RNA 2: GGGAAUGGAUCCACAUCUACGAAUUCGUACCAUAGAGAAGGUUUAUCCGCUCACCGAGAUCGGAAGAGCACACGU
B6: target 1 A1G,U10C (mixed)
RNA 1: CACCCGUGCAAAAAUGCAGGGGUCUAAAACUGAGCGGAUAACCUCUCUAUGG
RNA 2: GGGAAUGGAUCCACAUCUACGAAUUCGUACCAUAGAGAGGUCAUCCGCUCGCCGAGAUCGGAAGAGCACACGU
B7: target 1 insC 3' of 22,insG 3' of 1 (mixed)
RNA 1: CACCCGUGCAAAAAUGCAGGGGUCUAAAACUGAGCGGAUAACCUCUCUAUGG
RNA 2: GGGAAUGGAUCCACAUCUACGAAUUCGUACCCAUAGAGAGGUUAUCCGCUCAGCCGAGAUCGGAAGAGCACACGU
B8: target 1 insG 3' of 22,insC 3' of 1 (mixed)
RNA 1: CACCCGUGCAAAAAUGCAGGGGUCUAAAACUGAGCGGAUAACCUCUCUAUGG
RNA 2: GGGAAUGGAUCCACAUCUACGAAUUCGUACGCAUAGAGAGGUUAUCCGCUCACCCGAGAUCGGAAGAGCACACGU
B9: target 1 insU 3' of 16,insU 3' of 16 (mixed)
RNA 1: CACCCGUGCAAAAAUGCAGGGGUCUAAAACUGAGCGGAUAACCUCUCUAUGG
RNA 2: GGGAAUGGAUCCACAUCUACGAAUUCGUACCAUAGAUUGAGGUUAUCCGCUCACCGAGAUCGGAAGAGCACACGU
B10: target 1 insC 3' of 22,insC 3' of 1 (mixed)
RNA 1: CACCCGUGCAAAAAUGCAGGGGUCUAAAACUGAGCGGAUAACCUCUCUAUGG
RNA 2: GGGAAUGGAUCCACAUCUACGAAUUCGUACCCAUAGAGAGGUUAUCCGCUCACCCGAGAUCGGAAGAGCACACGU
B11: target 1 insG 3' of 6,insG 3' of 3 (mixed)
RNA 1: CACCCGUGCAAAAAUGCAGGGGUCUAAAACUGAGCGGAUAACCUCUCUAUGG
RNA 2: GGGAAUGGAUCCACAUCUACGAAUUCGUACCAUAGAGAGGUUAUCCGGCUGCACCGAGAUCGGAAGAGCACACGU
B12: target 1 insG 3' of 19,insG 3' of 7 (mixed)
RNA 1: CACCCGUGCAAAAAUGCAGGGGUCUAAAACUGAGCGGAUAACCUCUCUAUGG
RNA 2: GGGAAUGGAUCCACAUCUACGAAUUCGUACCAUGAGAGAGGUUAUCGCGCUCACCGAGAUCGGAAGAGCACACGU
B13: target 1 insA 3' of 7,insA 3' of 3 (mixed)
RNA 1: CACCCGUGCAAAAAUGCAGGGGUCUAAAACUGAGCGGAUAACCUCUCUAUGG
RNA 2: GGGAAUGGAUCCACAUCUACGAAUUCGUACCAUAGAGAGGUUAUCACGCUACACCGAGAUCGGAAGAGCACACGU

The target of the data set is T1, EsCas13d, nuclease-dead. Briefly: crRNA (strand 1, pre-loaded); Mg2+; 40 mM Tris-HCl pH 7.5, 150 mM NaCl, 6 mM MgCl2, 1 mM DTT, 0.1% Tween-20, 0.2 mg/ml BSA; 25 C; 10 min per concentration, then washed. The settings on record: tags: His6-TwinStrep-SUMO cleaved; N-terminal SNAP kept (SNAP-Surface 488); label: 3' end held by stalled T7 RNA polymerase.
B1 displayed a Kd of 11.2 ± 0.6 nM.

B2: binding was characterised by a dissociation constant (Kd) of 18.9 ± 2.5 nM.

As for B3, the Kd was around 100 nM.

With B4, binding was put at a Kd of 6.6 ± 0.5 nM.

The molecule B5 displayed a Kd of 4.9 ± 0.4 nM.

Take B6: the Kd was determined as 17.3 ± 0.9 nM.

Molecule B7 registered a Kd of 15.3 ± 1.2 nM.

Regarding B8, the dissociation constant (Kd) came out at 25.6 ± 1.6 nM.

Turning to B9, binding was put at a Kd of 38 ± 5 nM.

Consider B10, for which the affinity, expressed as Kd, was 17.2 ± 1 nM.

The molecule B11 registered a Kd of 7.3 ± 0.5 nM.

Molecule B12 had a Kd of 46 ± 4 nM. This Kd is about 6.3-fold higher than that of the molecule before.

In the case of B13, the Kd turned out to be 5.5 ± 0.4 nM.
